Series [1] concerns His-tagged cleavage resistant pro-NGF (point mutant, K-R cleavage site at 120,121 mutated to A-A).
The subject of series [2] is T1, rat BDNF secreted by adenovirus-infected 293T or endothelial cells (proforms of 30 kDa and 28 kDa).
T1 sequence: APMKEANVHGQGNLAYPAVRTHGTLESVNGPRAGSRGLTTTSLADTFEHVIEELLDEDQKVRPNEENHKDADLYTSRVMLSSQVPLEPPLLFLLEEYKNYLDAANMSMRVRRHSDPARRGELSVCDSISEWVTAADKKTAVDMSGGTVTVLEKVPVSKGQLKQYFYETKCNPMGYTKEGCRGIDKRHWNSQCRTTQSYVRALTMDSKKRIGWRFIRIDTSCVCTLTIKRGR

Series [3] concerns the target trk A (autophosphorylation assay of Example 5). The experiment in a line: cell-based or functional assay.
The target in series [4] is trk A on trk A-overexpressing PC12 cells. Kind of series: cell-based or functional assay.
The target of series [5] is p75 on vascular smooth muscle cell line (p75Ts-Tag-SMC). Kind of series: cell-based or functional assay.
The target in series [6] is p75NTR on A875 cells (UniProt P08138). The experiment in a line: whole-cell competition against 1 nM 125I-NGF on cells expressing only p75 (A875 cells).
p75NTR on A875 cells, sequence (P08138 29-427): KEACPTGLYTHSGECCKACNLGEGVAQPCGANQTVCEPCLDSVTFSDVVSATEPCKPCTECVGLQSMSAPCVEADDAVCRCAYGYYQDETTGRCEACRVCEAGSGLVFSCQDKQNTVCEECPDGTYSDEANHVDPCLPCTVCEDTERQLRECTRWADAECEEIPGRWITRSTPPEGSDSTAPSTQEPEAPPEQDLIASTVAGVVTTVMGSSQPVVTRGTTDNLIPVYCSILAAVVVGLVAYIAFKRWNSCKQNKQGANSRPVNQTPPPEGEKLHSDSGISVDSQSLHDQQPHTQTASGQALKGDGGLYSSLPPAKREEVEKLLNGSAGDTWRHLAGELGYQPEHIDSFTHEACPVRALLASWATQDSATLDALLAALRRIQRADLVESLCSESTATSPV
The target of series [7] is TrkA on 293 cells. The experiment in a line: whole-cell competition against 1 nM 125I-NGF on 293 cells expressing only trk A.
TrkA on 293 cells, sequence (P04629 33-796): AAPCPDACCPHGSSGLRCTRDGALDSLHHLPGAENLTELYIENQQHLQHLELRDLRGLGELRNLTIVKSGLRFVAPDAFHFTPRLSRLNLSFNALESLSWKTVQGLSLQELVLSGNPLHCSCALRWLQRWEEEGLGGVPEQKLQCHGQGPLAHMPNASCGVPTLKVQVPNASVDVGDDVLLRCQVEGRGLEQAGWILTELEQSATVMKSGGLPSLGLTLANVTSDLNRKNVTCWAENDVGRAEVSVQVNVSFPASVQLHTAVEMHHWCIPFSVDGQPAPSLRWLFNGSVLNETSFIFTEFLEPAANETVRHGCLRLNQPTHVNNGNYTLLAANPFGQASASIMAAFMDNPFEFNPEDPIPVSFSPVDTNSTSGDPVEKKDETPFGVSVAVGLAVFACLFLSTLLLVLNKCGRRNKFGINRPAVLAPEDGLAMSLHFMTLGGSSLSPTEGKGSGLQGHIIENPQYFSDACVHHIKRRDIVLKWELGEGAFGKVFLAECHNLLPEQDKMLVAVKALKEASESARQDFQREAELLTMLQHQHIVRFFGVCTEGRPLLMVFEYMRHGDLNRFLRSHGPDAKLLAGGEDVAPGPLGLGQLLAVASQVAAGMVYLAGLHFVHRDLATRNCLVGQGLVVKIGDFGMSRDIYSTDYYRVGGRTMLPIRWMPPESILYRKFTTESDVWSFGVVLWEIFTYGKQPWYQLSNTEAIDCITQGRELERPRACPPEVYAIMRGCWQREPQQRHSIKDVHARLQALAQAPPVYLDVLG

A word on the IC50: it is the point on the concentration scale where inhibition reaches its midpoint. Read a high IC50 as weaker potency.

commercial mature NGF (Enzo Products for Science, Farmingdale, N.Y.) (ligand), sequence (P01139 122-241): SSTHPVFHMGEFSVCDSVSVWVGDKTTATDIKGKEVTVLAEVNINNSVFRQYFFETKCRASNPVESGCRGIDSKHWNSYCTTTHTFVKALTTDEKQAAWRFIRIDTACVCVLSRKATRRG
plasmin, sequence (P00747 20-580): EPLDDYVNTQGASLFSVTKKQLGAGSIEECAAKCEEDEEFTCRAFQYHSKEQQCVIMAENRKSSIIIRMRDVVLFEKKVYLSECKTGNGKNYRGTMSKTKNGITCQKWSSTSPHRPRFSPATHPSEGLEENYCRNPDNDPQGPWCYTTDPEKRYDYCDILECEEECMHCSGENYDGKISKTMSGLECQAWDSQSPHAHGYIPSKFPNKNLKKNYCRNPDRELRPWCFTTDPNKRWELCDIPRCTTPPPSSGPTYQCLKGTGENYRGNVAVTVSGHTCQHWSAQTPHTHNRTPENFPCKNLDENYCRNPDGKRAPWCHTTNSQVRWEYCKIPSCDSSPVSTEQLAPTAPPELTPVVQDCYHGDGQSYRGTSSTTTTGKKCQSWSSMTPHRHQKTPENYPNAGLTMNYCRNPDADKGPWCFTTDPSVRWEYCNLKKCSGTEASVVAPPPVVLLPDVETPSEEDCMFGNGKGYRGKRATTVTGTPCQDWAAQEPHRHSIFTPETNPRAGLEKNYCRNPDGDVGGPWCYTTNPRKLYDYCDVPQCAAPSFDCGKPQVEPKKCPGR
plasmin, sequence (P00747 581-810): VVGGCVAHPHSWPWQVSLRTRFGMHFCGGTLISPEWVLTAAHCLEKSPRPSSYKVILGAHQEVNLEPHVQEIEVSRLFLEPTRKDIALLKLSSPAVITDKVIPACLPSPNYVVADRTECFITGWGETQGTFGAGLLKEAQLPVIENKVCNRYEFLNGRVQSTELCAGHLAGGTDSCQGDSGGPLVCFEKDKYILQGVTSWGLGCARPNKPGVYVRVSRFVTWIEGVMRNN
commercial mature NGF (Enzo Products for Science, Farmingdale, N.Y.) (ligand; other documents disagree on this pair), sequence (P01139 122-241): as the sequence (P01139 122-241) above

In the case of plasmin, in series [1], the “proteolytic cleavage, Western blot” value is “Pro-NGF was cleaved by plasmin to a 13 kD form”. In addition, the “proteolytic cleavage in endothelial media, Western blot” value in series [2] was “In endothelial media, only plasmin and MMP-7 appeared to cleave the large proform”.
In turn, “His-tagged native NGF, completely processed to the mature form of 13.5 kDa (from UniProt P01139 122-241) (ligand)” gave a trk A autophosphorylation in series [3] of 0.2 nM. In addition, the PC12 cell neuritogenesis in series [4] turned out to be 0.1 nM.
Take “commercial mature NGF (Enzo Products for Science, Farmingdale, N.Y.) (ligand)”: the TUNEL positive cells at 18 h (% TUNEL positive cells at 2 nM) in series [5] amounted to 20. Besides, the trk A autophosphorylation in series [3] came out at 0.2 nM. The PC12 cell neuritogenesis in series [4] worked out at 0.1 nM. In series [6], this substance showed an IC50 of 1 nM.
In series [7], “commercial mature NGF (Enzo Products for Science, Farmingdale, N.Y.) (ligand; other documents disagree on this pair)” yielded an IC50 of 1.2 nM.

The record behind these values is patent publication US7507799.
